Results: patent CN118076384A

Molecular target: PDL1 on MDA MB-231 human breast cancer cells (human) (UniProt Q9NZQ7)
Test: flow cytometry on MDA MB-231 cells, anti-human IgG Fc secondary antibody

Sequence of UniProt Q9NZQ7 (Q9NZQ7 19-290): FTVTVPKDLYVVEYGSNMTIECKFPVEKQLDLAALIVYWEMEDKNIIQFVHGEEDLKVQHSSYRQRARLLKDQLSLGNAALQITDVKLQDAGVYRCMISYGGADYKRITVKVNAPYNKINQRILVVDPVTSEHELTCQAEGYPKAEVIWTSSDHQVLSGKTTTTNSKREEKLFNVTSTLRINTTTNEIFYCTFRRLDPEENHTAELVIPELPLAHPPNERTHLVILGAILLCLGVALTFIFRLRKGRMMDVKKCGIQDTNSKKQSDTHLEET

德瓦鲁单抗(durvalumab) (antibody)
Kd: 0.167 nM
